In patent publication US20100004165A1, “Novel Protein Transduction Domains and Uses Therefor” (The Arizona Board of Regents, a body corporate acting on …, priority 2005, published 2010):
Read-outs that look alike come from different tables or passages of the source. Square brackets hold non-standard residues; d marks the D form. Ends that are not written are not given here. * marks the point of attachment. FITC = O=C1OC2(c3ccc(O)cc3Oc3cc(O)ccc32)c2ccc(NC(=S)*)cc21; pS = N[C@@H](COP(=O)(O)O)C(=O)O; βAla = NCCC(=O)O

Experiments:
[1] = tested on: 3T3 fibroblasts; experiment: Transduction of FITC-labeled peptides into 3T3 fibroblasts (fluorescence imaging); assay type: cell-based; details: 50 μM, 1 hour, media with or without serum
Procedure: FITC-(b)[…] (SEQ ID NO: 37)(WLRRIKA (SEQ ID NO: 3) monomer), FITC-(b)[…] (SEQ ID NO: 38)(WLRRIKA (SEQ ID NO: 3) dimer), and FITC-(b)[…] (SEQ ID NO: 39)(WLRRIKA (SEQ ID NO: 3) trimer) were synthesized on a 0.2 mmol scale using Fmoc-based solid phase peptide synthesis. The peptides were solubilized in water to create 3 mM stock solutions. 3T3 fibroblasts, cultured in Dulbecco's Modified Eagle Medium (DMEM) with 2 mM glutamine, pen/strep antibiotic, and 10% fetal bovine serum (FBS), were seeded at a density of 50,000 cells per well (1 ml of 50,000 cells/ml) in 4-well chambered slides (4 slides were used). The slides were incubated at 37° C. with 5% CO2 in a humidified incubator for 4 hours to allow the cells to adhere to the slides. After 4 hours, each well was washed 3 times with phosphate buffered saline (PBS). 50 μl of a 3 mM stock of each peptide as well as a 3 mM stock of fluorescein in water were added to 15 ml tubes containing 3 ml of DMEM with 2 mM glutamine, antibiotic, and 10% FBS and to 15 ml tubes containing 3 ml of serum-free DMEM with 2 mM glutamine and antibiotic. Treatments were performed in duplicate for both serum-containing and serum-free DMEM. On each slide system, each well received media (either with or without serum) with fluorescein, WLRRIKA (SEQ ID NO: 3) monomer, WLRRIKA (SEQ ID NO: 3) dimer, or WLRRIKA (SEQ ID NO: 3) trimer. In all cases, the final peptide or fluorescein concentration was 50 μM per well. Once the treatments were added, the slides were incubated at 37° C. with 5% CO2 in a humidified incubator for 1 hour. Then, each well was washed with PBS 3 times. Following the PBS wash, 0.2 ml trypsin was added to each well to digest residual peptide bound to the outer cellular membranes, and the slides were incubated at 37° C. for 10 minutes. To inactivate the trypsin, 1 ml DMEM with serum was added to each well, and the slides were incubated for 4 hours to allow cells to reattach to the slides. After 4 hours, the cells were washed 3 times in PBS, and 1 ml of DMEM with serum was added to each well. Then, the slides were imaged using a 40× objective. […]

[2] = tested on: primary rat astrocyte cells; experiment: Transduction across cell membranes in primary rat astrocyte cells; assay type: cell-based
Procedure: The in vitro model used to assess transduction across cell membranes was primary rat astrocyte cells. Cells were isolated as described (Innocenti et. al., J. Neurosci. 20:1800-1808, 2000), seeded at ˜3×10^4 cells/cm^2, and cultured in full serum (10% FBS in α-MEM) overnight. Some cells were serum starved by culturing in 0.5% FBS for 1-24 hours prior to treatment with transduction peptides.

[3] = tested on: porcine ear skin; experiment: Ex vivo skin transduction, porcine ear skin in modified Franz diffusion cell (Example 2); assay type: in vitro ADME; details: for skin penetration: 100 uM, conjugated or alone (FIG. 1, Panel C)
Procedure: The ex vivo model selected for skin transduction studies was freshly excised porcine ears. […] The system was maintained at 37° C. and under constant stirring. […] The amount of peptides that permeated across the skin was determined in the receptor phase; 1.5 mL of the receptor phase was withdrawn, lyophilized and the residue was suspended in 150 μL of water. […] Standard curves of the peptides were used as reference.

[4] = tested on: porcine ear skin; experiment: In vitro skin penetration and transdermal delivery, porcine ear skin in Franz diffusion cell, spectrofluorimetry (Example 3); details: for penetration in both SC and [E+D] compared with nonconjugated P20: all time points studied (0.5-8 h), p<0.05; for transdermal delivery: amount in the receptor phase: detected only at 8 hours post-application; for course of concentration in [E+D]: from 0.5 to 4 hours post-application, no further increase between 4 and 8 hours; for time of maximal rate of penetration in the whole skin (SC+[E+D]): post-application
Procedure: Fluorescence microscopy was used to visualize the peptides in different skin layers.
Formulations: Except in the experiments involving chemical penetration enhancers, FITC-labeled peptides were dissolved in phosphate-buffered saline (PBS, 10 mM, pH 7.2); the peptide concentration was 100 μM. In the experiment involving penetration enhancers, PBS could not be used as a solvent because of the lipophilic nature of monoolein and oleic acid. Propylene glycol was used as a solvent, since it solubilizes both lipids and peptides. […] The formulations were prepared by mixing monoolein or oleic acid with propylene glycol and adding the peptides to the system immediately thereafter.
Porcine ear skin was used as model skin for in vitro skin penetration studies because of its similarity with human skin, especially regarding histological and biochemical properties and permeability to drugs (33). Freshly excised porcine ears were obtained from a local abattoir. The skin from the outer surface of the ear was carefully dissected; making sure that the subcutaneous fat was maximally removed (34). Maximum care was taken to maintain the integrity of the skin, which was assured by histology. The cleaned porcine ear skin was immediately mounted in a Franz diffusion cell (diffusion area of 1 cm^2; Laboratory Glass Apparatus, Inc, Berkeley, Calif., USA), with the stratum corneum facing the donor compartment (where the formulation was applied) and the dermis facing the receptor compartment, which was filled with PBS (100 mM, pH 7.2, 3 mL). The receptor phase was maintained at 37° C. and under constant stirring. To achieve higher reproducibility, the skin samples were equilibrated to the diffusion cell conditions for 30 minutes before application of any formulation.
PBS solutions or propylene glycol formulations of the peptides (70 μL each) were applied to the skin surface (donor compartment). […] The concentrations of FITC-P20 (SEQ ID NO: 9), FITC-YARA-P20 (SEQ ID NO: 42), and FITC-TAT-P20 (SEQ ID NO: 43) in the skin and receptor phase were determined at 0.5, 1, 2, 4, and 8 hour post-application.
At the end of the experiment, skin surfaces were thoroughly washed with distilled water to remove excess formulation and carefully wiped with a tissue paper. To separate the stratum corneum (SC) from the remaining epidermis (E) and dermis (D), the skin was subjected to tape stripping. The skin was stripped with 15 pieces of adhesive tape (3M, St. Paul, Minn., USA), and the tapes containing the SC were immersed in 3 mL of a water:methanol (1:1 v/v) solution, vortexed for 2 min, and bath sonicated for 30 minutes. The remaining [E+D] was cut in small pieces, vortexed for 2 minutes in 2 mL of a water:methanol (1:1 v/v) solution, and homogenized using a tissue grinder for 1 minute and bath sonication for 30 minutes. The resulting mixture was centrifuged for 1 minute. The peptide present in the receptor phase was concentrated (10×) as follows. Samples (2 mL) of the receptor phase were lyophilized for 24 hours, and the residue was dissolved in 200 μL of a hidroalcoholic (20% of ethanol) solution.
All solutions were subjected to fluorimetry analysis using a Gemini SpectraMax™ platereader (Molecular Devices, Sunnyvale, Calif., USA) with excitation at 495 nm and emission at 518 nm. […] To evaluate the recovery of the peptides from the skin in the extraction procedure, tissues sections (1 cm^2) were spiked with 20 μL of 0.2 and 0.5 mM solutions of the peptides. The skin sections were homogenized using a tissue grinder, vortex-mixer, and bath sonicator, as described above. […] We accounted for such a recovery percentage in the quantification of peptides.

[5] = tested on: porcine ear skin; experiment: Fluorescence microscopy of skin sections after peptide application
Description: The skin sections (8 μm) were mounted on glass slides. The slides were visualized without any additional staining or treatment through a 20× objective using a Zeiss microscope (Carl Zeiss, Thornwood, N.Y., USA) equipped with a filter for FITC and AxioVision software.

[6] = tested on: Rat aorta; experiment: Vasorelaxation of rat aorta rings pre-contracted with KCl (muscle bath)
Procedure: Rat aorta was isolated and dissected free from connective and fat tissue. Transverse rings, 3.0 mm in width, were cut and tied to silk suture. The tissue was suspended in a muscle bath containing a bicarbonate buffer (120 mM NaCl, 4.7 mM KCl, 1.0 mM MgSO4, 1.0 mM NaH2PO4, 10 mM glucose, 1.5 mM CaCl2, and 25 mM […], pH 7.4) and equilibrated with 95% O2/5% CO2 at 37° C. The rings were fixed at one end to a stainless steel wire and attached to a force transducer in muscle perfusion system (Radnotti). The rings were then progressively stretched, and the isometric force generated in response to 110 mM KCl (with equimolar replacement of NaCl in bicarbonate buffer) was determined until the consistent maximal force was produced. Agonists and peptide was added directly to the baths. Tissue that was pre-contracted with 110 mM potassium chloride (KCl) followed by 1.0 mM WL-P20 ([…]p[…], pS is phosphoserine) (SEQ ID NO: 10), where pS is phosphoserine) relaxed compared to untreated control (13% relaxation at 10 minutes, 50% relaxation at 30 minutes, and maximum 88% relaxation at ˜60 minutes, FIG. 4). Percent relaxation was calculated relative to maximum force generated with KCl. […] Such a difference may result from different mechanisms of penetration and/or intracellular localization.

[7] = PBS vehicle, 4 hours post-application

Substance: FITC-(b)AWLRRIKA ({FITC}-[βAla]WLRRIKA) [WLRRIKA monomer]
- fluorescence within the cells (ability to penetrate the cells) [1]: not able to penetrate the cells

Substance: FITC-(b)AWLRRIKAWLRRIKA [WLRRIKA dimer]
- fluorescence within the cells (ability to penetrate the cells) [1]: bright fluorescence within the cells

Substance: WL-scrP20: control, the pseudo-monomer WLRRIKA-(WL-scrP20)
- transduction ([2]; 1 μM): no transduction was observed
- transduction ([2]; 25 μM): no transduction was observed
- transduction ([2]; 50 μM): no transduction was observed

Substance: WLRRIKAWLRRIKAWLRRIKA [W3]
- transduction ([2]; 50 μM): efficient transduction
- persistence of transduction ([2]; 50 μM for 1 h): at least 24 hours
- carrying of non-covalently bound P20 across the skin ([3]; 100 uM transduction domain, non-covalently bound (FIG. 1, Panel A)): did not carry P20
- skin penetration [3]: significantly enhanced
- skin penetration [E+D] of non-covalently bound P20 ([3]; 1 mM W3 used to carry P20 (FIG. 1, Panel B)): significant skin penetration
- fluorescence within the cells (ability to penetrate the cells) [1]: bright fluorescence within the cells

Substance: YARAAARQARA
- amount penetrated into the skin (SC+[E+D]) relative to amount that permeated across the skin [4]: 34 times
- effect of monoolein or oleic acid on topical or transdermal delivery [4]: failed to further increase
- influence of propylene glycol on skin penetration compared to PBS [4]: did not influence
- penetration in the SC and [E+D] relative to the control peptide FITC-YKAc [4]: 8-10 times
- transdermal delivery: amount found in the receptor phase [4]: 0.053 ± 0.009 nmol
- localisation of fluorescence in skin layers [5]: strong fluorescent staining of SC and viable epidermis

Substance: YARAAARQARAWLRRASAPLPGLK (YARAAARQARAWLRRA[pS]APLPGLK; also: FITC label) [YARA-P20]
- penetration in both SC and [E+D] compared with nonconjugated P20 [4]: significantly higher
- transdermal delivery: amount in the receptor phase [4]: 0.031 ± 0.011 nmol
- course of concentration in [E+D] [4]: progressively increased
- time of maximal rate of penetration in the whole skin (SC+[E+D]) [4]: 1 h
- skin penetration [3]: significantly enhanced
- time of maximum relaxation [6]: 5 to 10 min
- localisation of fluorescence in skin layers ([5]; 4 hours post-application): strong fluorescence in the SC and viable epidermis

Substance: YGRKKRRQRRR [TAT]
- influence of propylene glycol on skin penetration compared to PBS ([4]; 4 hours post-application): did not influence
- amount penetrated into the skin (SC+[E+D]) relative to amount that permeated across the skin [4, 7]: 30 times
- transdermal delivery: amount found in the receptor phase [4, 7]: 0.058 ± 0.008 nmol
- effect of monoolein or oleic acid on topical or transdermal delivery ([4]; propylene glycol, monoolein 10% w/w or oleic acid 5% w/w, 4 h): failed to further increase
- localisation of fluorescence in skin layers ([5]; 4 hours post-application): strong fluorescent staining of SC and viable epidermis

Substance: YGRKKRRQRRRWLRRASAPLPGLK [TAT-P20]
- penetration in both SC and [E+D] compared with nonconjugated P20 [4]: significantly higher
- transdermal delivery: amount in the receptor phase [4]: 0.027 ± 0.009 nmol
- course of concentration in [E+D] [4]: progressively increased
- time of maximal rate of penetration in the whole skin (SC+[E+D]) [4]: 1 h
- localisation of fluorescence in skin layers ([5]; 4 hours post-application): strong fluorescence in the SC and viable epidermis
